Source: publication PMC9404468

Legend:
[1] = target: thyroid hormone receptor beta (TRb), His-tagged, from pETSUMO-TRb (UniProt P10828); assay: peptide or protein array
[2] = target: human Hsp90a (heat shock protein 90 alpha), purified full-length (human) (UniProt P07900); assay: peptide or protein array

EC50 [2] | Substance | EC50 [1]
– | human Hsp90a (heat shock protein 90 alpha), purified full-length (from UniProt P07900 1-732) (natural protein) | 124 nM
1240 nM | thyroid hormone receptor beta (TRb), His-tagged, from pETSUMO-TRb (from UniProt P10828 1-461) | –
